Source: patent US20230250184A1

Target: human CD22 on cells (Daudi, Raji, Nalm.6, K562-CD22) (human) (UniProt P20273)
Assay: flow cytometry on K562.huCD22.Luc cells against parental K562 cells, 4 C 30 min

Sequence of UniProt P20273 (P20273 20-847): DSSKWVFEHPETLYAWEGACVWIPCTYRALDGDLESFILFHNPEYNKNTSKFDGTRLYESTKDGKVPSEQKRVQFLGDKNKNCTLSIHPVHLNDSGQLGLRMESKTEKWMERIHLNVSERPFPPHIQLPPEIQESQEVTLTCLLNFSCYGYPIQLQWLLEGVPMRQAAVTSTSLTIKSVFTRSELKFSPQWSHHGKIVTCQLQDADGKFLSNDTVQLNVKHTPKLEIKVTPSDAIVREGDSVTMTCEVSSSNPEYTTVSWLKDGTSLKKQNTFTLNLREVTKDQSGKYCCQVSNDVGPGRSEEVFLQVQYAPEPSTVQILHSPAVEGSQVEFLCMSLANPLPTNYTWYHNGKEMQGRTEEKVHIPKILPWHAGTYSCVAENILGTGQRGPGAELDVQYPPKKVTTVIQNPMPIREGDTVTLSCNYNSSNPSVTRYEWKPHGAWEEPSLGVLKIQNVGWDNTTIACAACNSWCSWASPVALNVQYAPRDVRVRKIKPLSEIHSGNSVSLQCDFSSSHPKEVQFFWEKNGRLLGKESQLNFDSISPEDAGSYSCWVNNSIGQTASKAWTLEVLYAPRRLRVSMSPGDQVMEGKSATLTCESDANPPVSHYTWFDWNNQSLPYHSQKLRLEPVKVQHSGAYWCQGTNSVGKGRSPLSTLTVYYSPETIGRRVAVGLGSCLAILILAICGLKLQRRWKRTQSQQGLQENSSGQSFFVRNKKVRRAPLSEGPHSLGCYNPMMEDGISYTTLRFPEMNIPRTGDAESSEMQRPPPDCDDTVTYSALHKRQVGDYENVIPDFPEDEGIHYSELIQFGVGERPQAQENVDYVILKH

MFI fold over K562 cells (negative control): 642 fold
Substance: PE conjugated anti-human CD22 antibody (Miltenyi Biotec, Cat. No. 130-105-086)
